Two proteins from publication PMC2789240, “Comparative structural, kinetic and inhibitor studies of Trypanosoma brucei trypanothione reductase with T. cruzi^” (Molecular and Biochemical Parasitology, 2010) can be followed below.

The Km is the substrate concentration at which the rate is half of its maximum. In general, kcat refers to the maximal rate divided by the concentration of active sites. As usually defined, the kcat/Km is the turnover number divided by the Michaelis constant.

Substrate in data set [1]: N[C@@H](CCC(=O)N[C@H]1CSSC[C@H](NC(=O)CC[C@H](N)C(=O)O)C(=O)NCC(=O)NCCCNCCCCNC(=O)CNC1=O)C(=O)O
The experiment in a line: 412 nm DTNB-coupled trypanothione reductase assay (IC50, Km). In kind it is biochemical, Trypanosoma cruzi. As to conditions: other: saturating NADPH; pH 7.4; 25.0 °C.

Substrate in data set [2]: N[C@@H](CCC(=O)N[C@H]1CSSC[C@H](NC(=O)CC[C@H](N)C(=O)O)C(=O)NCC(=O)NCCCNCCCCNC(=O)CNC1=O)C(=O)O
The experiment in a line: 340 nm NADPH oxidation trypanothione reductase assay. It is filed as biochemical, Trypanosoma cruzi. As to conditions: other: 340 nm assay; pH 7.4; 25.0 °C. The protocol:
TryR was assayed spectrophotometrically either by monitoring the trypanothione-dependent oxidation of NADPH at 340 nm, or by the reduction of 5,5′-dithio-bis(2-nitrobenzoic acid) (DTNB) at 412 nm (see Fig. 1B). Assays at 340 nm were carried out at 25 °C in 500 μl volume acrylic cuvettes and changes in absorbance monitored with a UV-1601 PC spectrophotometer (Shimadzu). The standard assay mixture contained 40 mM HEPES pH 7.4, 1 mM EDTA, ∼10 mU ml^−1 TryR, 150 μM NADPH and 100 μM T(S)2. Assays at 412 nm were carried out in 96-well plates (Polysorp, Nunc) at room temperature in a volume of 200 μl. Changes in absorbance were monitored in a SpectraMax 340pc plate reader (Molecular Devices). The standard assay mixture contained 40 mM HEPES pH 7.4, 1 mM EDTA, ∼10 mU ml^−1 TryR, 150 μM NADPH, 6 μM T(S)2 and 50 μM DTNB. All assays were initiated by addition of the T(S)2. Data was collected using SoftMax Pro (molecular devices) and UVProbe 2 (Shimadzu) software, processed and analysed using Excel 2002 (Microsoft) and GraFit 5 (Erithacus Software). NADPH stock solutions were measured spectrophotometrically at 340 nm using an absorption coefficient of 6.22 × 10^3 M^−1 cm^−1[16]. The concentration of T(S)2 stock solutions were determined by measuring the oxidation of NADPH in the presence of excess TryR.
Km values with respect to T(S)2 were determined for TbTryR in both assays using purified recombinant T. cruzi TryR for comparison. Determinations for each enzyme were carried out in three independent experiments and a weighted mean calculated.

B1: TcTryR (recombinant T. cruzi trypanothione reductase) (Trypanosoma cruzi) (protein)
chain: MMSKIFDLVVIGAGSGGLEAAWNAATLYKKRVAVIDVQMVHGPPFFSALGGTCVNVGCVPKKLMVTGAQYMEHLRESAGFGWEFDRTTLRAEWKKLIAVKDEAVLNINKSYEEMFRDTEGLEFFLGWGSLESKNVVNVRESADPASAVKERLETENILLASGSWPHMPNIPGIEHCISSNEAFYLPEPPRRVLTVGGGFISVEFAGIFNAYKPKDGQVTLCYRGEMILRGFDHTLREELTKQLTANGIQILTKENPAKVELNADGSKSVTFESGKKMDFDLVMMAIGRSPRTKDLQLQNAGVMIKNGGVQVDEYSRTNVSNIYAIGDVTNRVMLTPVAINEAAALVDTVFGTNPRKTDHTRVASAVFSIPPIGTCGLIEEVASKRYEVVAVYLSSFTPLMHNISGSKYKTFVAKIITNHSDGTVLGVHLLGDNAPEIIQGVGICLKLNAKISDFYNTIGVHPTSAEELCSMRTPSYYYVKGEKMEKPSEASL
notes: made in house
As to B1, the Km in data set [1] was 10.4 ± 0.3 µM.

B2: TcTryR (Trypanosoma cruzi) (protein)
chain: B1 chain
notes: made in house
Regarding B2, in data set [2], the Km came out at 29.6 ± 2.8 µM, the turnover number (kcat) stood at 77 ± 8 s⁻¹ and the kcat/Km worked out at 2.6e+06 M⁻¹ s⁻¹.
